Laboratory results published in PMC9973045, “The Drug-Induced Interface That Drives HIV-1 Integrase Hypermultimerization and Loss of Function” (mBio, 2023).

Target: the molecule itself
Assay: SEC-MALS; SEC-MALLS of isolated CTDs; Superdex-75 Increase 10/300; 0.5 M NaCl, 25 mM Tris-HCl pH 7.5, 3 mM NaN3, 0.5 mM TCEP; 25°C; loaded at 8, 4, 2, 1 or 0.5 mg/mL; dimer to monomers

B1: isolated HIV-1 IN CTD (wild type), IN residues 220 to 270 (domain or fragment)
chain: IQNFRVYYRDSRDPVWKGPAKLLWKGEGAVVIQDNSDIKVVPRRKAKIIRD
notes: HIV-1 integrase (IN) carboxyl-terminal domain, residues 220 to 270, lacking the C-terminal tail; numbers count on: the mature integrase (IN residues); A prior drug-free HIV-1 IN CTD structure is cited as PDB 6T6E; also called carboxyl-terminal domain; source: E. coli BL21-CodonPlus (DE3), purified (Ni-NTA, HiTrap SP, SEC); not shown: His6-Sumo, N-terminal, cleaved
- stoichiometry N: 2
